{
  "source": "patent US20040161821A1",
  "about": "(COLD SPRING HARBOR LABORATORY, published 2004)",
  "binders": {"B1": {"name": "MBP.DEP-1(DA) (enzyme, not shown: large carriers; small tags and cut ends)", "chain": "RKKRKDAKNNEVSFSQIKPKKSKLIRVENFEAYFKKQQADSNCGFAEEYEDLKLVGISQPKYAAELAENRGKNRYNNVLPYDISRVKLSVQTHSTDDYINANYMPGYHSKKDFIATQGPLPNTLKDFWRMVWEKNVYAIIMLTKCVEQGRTKCEEYWPSKQAQDYGDITVAMTSEIVLPEWTIRDFTVKNIQTSESHPLRQFHFTSWPAHGVPDTTDLLINFRYLVRDYMKQSPPESPILVHCSAGVGRTGTFIAIDRLIYQIENENTVDVYGIVYDLRMHRPLMVQTEDQYVFLNQCVLDIVRSQKDSKVDLIYQNTTAMTIYENLAPVTTFGKTNGYIA", "notes": "also called DEP-1 substrate-trapping mutant (DA); DEP-1(DA) cytoplasmic domain fusion protein"}, "B2": {"name": "MBP.DEP-1 (enzyme, not shown: large carriers)", "chain": "B1 chain with A209D", "notes": "also called wild type DEP-1 (MBP-DEP-1); wildtype DEP-1 fusion protein"}, "B3": {"name": "full length DEP-1(CS) (protein)", "chain": "AGGTPSPIPDPSVATVATGENGITQISSTAESFHKQNGTGTPQVETNTSEDGESSGANDSLRTPEQGSNGTDGASQKTPSSTGPSPVFDIKAVSISPTNVILTWKSNDTAASEYKYVVKHKMENEKTITVVHQPWCNITGLRPATSYVFSITPGIGNETWGDPRVIKVITEPIPVSDLRVALTGVRKAALSWSNGNGTASCRVLLESIGSHEELTQDSRLQVNISDLKPGVQYNINPYLLQSNKTKGDPLGTEGGLDASNTERSRAGSPTAPVHDESLVGPVDPSSGQQSRDTEVLLVGLEPGTRYNATVYSQAANGTEGQPQAIEFRTNAIQVFDVTAVNISATSLTLIWKVSDNESSSNYTYKIHVAGETDSSNLNVSEPRAVIPGLRSSTFYNITVCPVLGDIEGTPGFLQVHTPPVPVSDFRVTVVSTTEIGLAWSSHDAESFQMHITQEGAGNSRVEITTNQSIIIGGLFPGTKYCFEIVPKGPNGTEGASRTVCNRTVPSAVFDIHVVYVTTTEMWLDWKSPDGASEYVYHLVIESKHGSNHTSTYDKAITLQGLIPGTLYNITISPEVDHVWGDPNSTAQYTRPSNVSNIDVSTNTTAATLSWQNFDDASPTYSYCLLIEKAGNSSNATQVVTDIGITDATVTELIPGSSYTVEIFAQVGDGIKSLEPGRKSFCTDPASMASFDCEVVPKEPALVLKWTCPPGANAGFELEVSSGAWNNATHLESCSSENGTEYRTEVTYLNFSTSYNISITTVSCGKMAAPTRNTCTTGITDPPPPDGSPNITSVSHNSVKVKFSGFEASHGPIKAYAVILTTGEAGHPSADVLKYTYDDFKKGASDTYVTYLIRTEEKGRSQSLSEVLKYEIDVGNESTTLGYYNGKLEPLGSYRACVAGFTNITFHPQNKGLIDGAESYVSFSRYSDAVSLPQDPGVICGAVFGCIFGALVIVTVGGFIFWRKKRKDAKNNEVSFSQIKPKKSKLIRVENFEAYFKKQQADSNCGFAEEYEDLKLVGISQPKYAAELAENRGKNRYNNVLPYDISRVKLSVQTHSTDDYINANYMPGYHSKKDFIATQGPLPNTLKDFWRMVWEKNVYAIIMLTKCVEQGRTKCEEYWPSKQAQDYGDITVAMTSEIVLPEWTIRDFTVKNIQTSESHPLRQFHFTSWPDHGVPDTTDLLINFRYLVRDYMKQSPPESPILVHSSAGVGRTGTFIAIDRLIYQIENENTVDVYGIVYDLRMHRPLMVQTEDQYVFLNQCVLDIVRSQKDSKVDLIYQNTTAMTIYENLAPVTTFGKTNGYIA"}, "B4": {"name": "full length wild type DEP-1 (protein)", "chain": "B3 chain with S1204C"}},
  "key": {"E-cadherin": {"biological_target": "T1, E-cadherin (human, UniProt P12830 155-882)", "T1 construct": "Endogenous protein in lysate of pervanadate-treated T-47D cells", "T1 sequence (looked up)": "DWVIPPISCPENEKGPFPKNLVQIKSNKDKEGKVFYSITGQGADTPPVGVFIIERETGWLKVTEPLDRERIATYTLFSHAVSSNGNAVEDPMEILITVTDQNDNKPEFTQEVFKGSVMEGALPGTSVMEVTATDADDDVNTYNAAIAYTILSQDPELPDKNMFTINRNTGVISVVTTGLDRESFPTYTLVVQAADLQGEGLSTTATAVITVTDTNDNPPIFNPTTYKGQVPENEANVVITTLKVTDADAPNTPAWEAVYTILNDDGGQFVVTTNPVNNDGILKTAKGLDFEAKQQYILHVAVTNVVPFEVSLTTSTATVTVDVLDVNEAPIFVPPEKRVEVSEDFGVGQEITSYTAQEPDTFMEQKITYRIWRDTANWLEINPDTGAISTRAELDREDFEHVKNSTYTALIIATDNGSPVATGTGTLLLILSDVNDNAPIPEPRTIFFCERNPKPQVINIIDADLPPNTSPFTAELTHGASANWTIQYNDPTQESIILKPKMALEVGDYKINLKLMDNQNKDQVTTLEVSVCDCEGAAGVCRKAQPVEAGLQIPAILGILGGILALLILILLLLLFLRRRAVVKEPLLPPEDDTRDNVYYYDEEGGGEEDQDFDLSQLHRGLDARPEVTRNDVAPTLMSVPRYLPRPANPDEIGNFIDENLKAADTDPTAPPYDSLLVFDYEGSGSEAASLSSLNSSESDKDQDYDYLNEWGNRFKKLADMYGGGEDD", "test": "amylose pull-down from pervanadate-treated T-47D lysate, anti-E-cadherin immunoblot", "experimental": "(§1) Substrate trapping—Prior to lysis, T-47D and T-47D/Met cells were treated with 50 μM pervanadate for 20 minutes, whereas MDA-MB-231 cells were treated with 100 μM pervanadate for 20 minutes. Cells were rinsed with PBS and lysed in 1% NP-40 buffer (1% NP-40,150 mM NaCl, 20 mM HEPES pH7.5, 1 mM EDTA, 5 μg/ml aprotinin, 5 μg/ml leupeptin, 1 mM benzamidine). For trapping experiments in vitro, the lysis buffer also contained 5 mM iodoacetic acid to inhibit cellular PTPs irreversibly. After incubation on ice for 5 minutes, dithiothreitol was added to a final concentration of 10 mM to inactivate any unreacted iodoacetic acid. Insoluble material was removed by centrifugation. […] Lysates and fusion proteins were incubated at 4° C. for 2 hours and then washed extensively with 1% NP-40 buffer. Tyrosine phosphorylated proteins were immunoprecipitated using 0.1 mg T-47D cell lysate and a combination of 5 μl each of anti-phosphotyrosine antibodies PT-66 and 4G10. Lysate and antibodies were incubated at 4° C. for 2 hours and washed extensively with 1% NP-40 buffer."}, "Met, the HGF/SF receptor": {"biological_target": "T2, Met, the HGF/SF receptor (Homo sapiens (Human), UniProt P08581 25-1390, tyrosine phosphorylated (cells treated with pervanadate); sites not stated)", "T2 construct": "also called HGF-R; HGF/SF receptor Met", "test": "amylose pull-down from pervanadate-treated T-47D/Met lysate, anti-Met immunoblot", "experimental": "as §1"}, "[1]": {"biological_target": "T3, chimeric receptor CSF-MET, P07333", "T3 chain": "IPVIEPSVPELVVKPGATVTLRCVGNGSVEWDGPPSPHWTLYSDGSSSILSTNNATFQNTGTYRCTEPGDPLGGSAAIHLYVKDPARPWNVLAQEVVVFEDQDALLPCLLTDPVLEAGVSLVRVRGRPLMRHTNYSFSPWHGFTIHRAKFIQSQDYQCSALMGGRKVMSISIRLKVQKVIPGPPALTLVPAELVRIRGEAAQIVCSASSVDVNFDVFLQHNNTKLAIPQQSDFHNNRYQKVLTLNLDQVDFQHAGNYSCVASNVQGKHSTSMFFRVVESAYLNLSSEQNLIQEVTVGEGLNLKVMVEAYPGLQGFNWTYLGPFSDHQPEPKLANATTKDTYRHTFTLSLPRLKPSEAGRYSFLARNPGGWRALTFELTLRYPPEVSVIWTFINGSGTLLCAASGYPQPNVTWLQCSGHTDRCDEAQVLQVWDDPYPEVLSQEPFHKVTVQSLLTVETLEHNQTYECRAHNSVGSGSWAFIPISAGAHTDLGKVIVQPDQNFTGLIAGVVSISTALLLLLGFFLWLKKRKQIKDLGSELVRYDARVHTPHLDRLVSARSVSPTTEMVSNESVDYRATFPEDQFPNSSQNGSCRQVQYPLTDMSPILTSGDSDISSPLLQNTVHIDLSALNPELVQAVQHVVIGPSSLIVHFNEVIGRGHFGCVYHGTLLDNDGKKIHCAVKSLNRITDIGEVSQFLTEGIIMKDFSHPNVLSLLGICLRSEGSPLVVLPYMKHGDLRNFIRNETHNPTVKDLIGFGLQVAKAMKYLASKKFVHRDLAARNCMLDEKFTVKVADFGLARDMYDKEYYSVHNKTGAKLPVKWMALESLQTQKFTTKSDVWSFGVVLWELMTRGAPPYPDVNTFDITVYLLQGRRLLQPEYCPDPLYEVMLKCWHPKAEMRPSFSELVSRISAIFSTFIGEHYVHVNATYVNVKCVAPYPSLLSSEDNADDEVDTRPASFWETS"}},
  "note": "Numbering of substitutions follows the chain as printed.",
  "data": [
    {"binder": "B1", "values": [
      {"measurement": "binding result", "setting": "E-cadherin", "value": "no binding (tested: 1 µg fusion protein to 500 µg lysate)"}
    ]},
    {"binder": "B2", "values": [
      {"measurement": "binding result", "setting": "Met, the HGF/SF receptor", "value": "no binding (tested: 1 µg fusion protein to 500 µg lysate)"}
    ]},
    {"binder": "B3", "values": [
      {"measurement": "phosphorylation of Met (phospho-specific antibodies)", "setting": "[1]", "value": "no effect on phosphorylation of Met was observed with the expression of DEP-1(CS)"},
      {"measurement": "phosphorylation of Tyr^1349 of Met (phospho-specific antibody)", "setting": "[1]", "value": "no change in the phosphorylation level of Tyr^1349 was observed in the presence of DEP-1(CS)"}
    ]},
    {"binder": "B4", "values": [
      {"measurement": "phosphorylation of Tyr^1230, Tyr^1234 and Tyr^1235 of Met (phospho-specific antibodies)", "setting": "[1]", "value": "a gradual decrease in the level of phosphorylation of the activation loop tyrosine residues was observed with increasing expression of wild type DEP-1"},
      {"measurement": "phosphorylation of Tyr^1349 of Met (phospho-specific antibody)", "setting": "[1]", "value": "Tyr^1349 was nearly completely dephosphorylated in the presence of low levels of DEP-1"},
      {"measurement": "phosphorylation of Tyr^1365 of Met (phospho-specific antibody)", "setting": "[1]", "value": "Tyr^1365 was nearly completely dephosphorylated in the presence of low levels of DEP-1"}
    ]}
  ]
}
